Assay results from patent publication EP4335870A1 (NantCell, Inc., dated 2024).

target: SARS-CoV-2 Spike S1, wildtype (Table 13) (SARS-CoV-2, UniProt P0DTC2 16-685)

Row | Binder | Kd [nM]
1 | N-612-014 (antibody, V domains shown) VH: EVQLVESGGGLVQPGGSLRLSCAASGFTFSSYAMTWVRQAPGKGLEWVSYISGSGGGTYYADSVKGRFTISRDNSKNTLYLQMNSLRAEDTAVYYCARDRWASGWLAFDVWGQGTLVTVSS VL: not shown | 11.4
2 | N-612-017 (antibody, V domains shown) VH: EVQLVESGGGLVQPGGSLRLSCAASGFTFSSYAMHWVRQAPGKGLEWVSAIWGSGSNTYYADSVKGRFTISRDNSKNTLYLQMNSLRAEDTAVYYCARGRDLAAFTKTAFDVWGQGTLVTVSS VL: not shown | 12
3 | N-612-004 (antibody, V domains shown) VH: EVQLVESGGGLVQPGGSLRLSCAASGFTFSSYYMHWVRQAPGKGLEWVSAISGSGGYTYYADSVKGRFTISRDNSKNTLYLQMNSLRAEDTAVYYCARDRDHAYDWGFDVWGQGTLVTVSS VL: DIQMTQSPSSLSASVGDRVTITCQASQDISNYLNWYQQKPGKAPKLLIYDASNLETGVPSRFSGSGSGTDFTFTISSLQPEDIATYYCQQWADWPLTFGQGTKVEIK | 0.62
4 | N-612-056 (antibody, V domains shown) VH: not shown VL: DIQMTQSPSSLSASVGDRVTITCQASQDISNYLNWYQQKPGKAPKLLIYDASNLETGVPSRFSGSGSGTDFTFTISSLQPEDIATYYCQQDAGTPLTFGQGTKVEIK | 4.5
